The source of these data is US20030143656A1.

Test [1] concerns the target 412E-p70 S6K-T2 (His-tagged, insect cells) (human) (UniProt P23443). As to the kind of experiment: SPR, His-PDK1 injected over 412E-p70 S6K-T2 amine-coupled to a CM5 chip, steady state.
In test [2] the target is GST-PDK1 I119A (human), O15530. As to the kind of experiment: cell-based or functional assay.

412E-p70 S6K-T2 (His-tagged, insect cells) (human), sequence (P23443 other isoform, or with tags, fused parts or gaps): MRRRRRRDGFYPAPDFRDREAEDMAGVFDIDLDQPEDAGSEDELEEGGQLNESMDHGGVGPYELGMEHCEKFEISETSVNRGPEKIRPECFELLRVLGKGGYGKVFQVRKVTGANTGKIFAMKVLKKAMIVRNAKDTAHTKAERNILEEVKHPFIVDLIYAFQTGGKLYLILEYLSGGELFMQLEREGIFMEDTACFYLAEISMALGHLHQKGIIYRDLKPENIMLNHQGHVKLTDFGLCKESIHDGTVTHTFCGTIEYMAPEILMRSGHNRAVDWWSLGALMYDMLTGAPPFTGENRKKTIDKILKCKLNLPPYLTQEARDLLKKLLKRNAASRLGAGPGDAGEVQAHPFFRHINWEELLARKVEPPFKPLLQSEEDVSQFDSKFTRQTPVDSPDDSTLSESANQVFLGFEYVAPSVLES

B1: His-PDK1 (enzyme, human, UniProt O15530 52-556, looked up, not shown: small tags and cut ends)
chain: DGTAAEPRPGAGSLQHAQPPPQPRKKRPEDFKFGKILGEGSFSTVVLARELATSREYAIKILEKRHIIKENKVPYVTRERDVMSRLDHPFFVKLYFTFQDDEKLYFGLSYAKNGELLKYIRKIGSFDETCTRFYTAEIVSALEYLHGKGIIHRDLKPENILLNEDMHIQITDFGTAKVLSPESKQARANSFVGTAQYVSPELLTEKSACKSSDLWALGCIIYQLVAGLPPFRAGNEYLIFQKIIKLEYDFPEKFFPKARDLVEKLLVLDATKRLGCEEMEGYGPLKAHPFFESVTWENLHQQTPPKLTAYLPAMSEDDEDCYGNYDNLLSQFGCMQVSSSSSSHSLSASDTGLPQRSGSNIEQYIHDLDSNSFELDLQFSEDEKRLLLEKQAGGNPWHQFVENNLILKMGPVDKRKGLFARRRQLLLTEGPHLYYVDPVNKVLKGEIPWSQELRPEAKNFKTFFVHTPNRTYYLMDPSGNAHKWCRKIQEVWRQRYQSHPDAAVQ
In test [1], B1 had a Kd of 8 µM.

In test [2], REPRILSEEEQEMFRDFDYIADWC [PIFtide] came in with an inhibition by 2 µM PIFtide of the activation of S6K1-T2[T412E] and SGK1[T422D] by the PDK1 mutant of 50%; an inhibition by 35 µM PIFtide of the activation of S6K1-T2[T412E] and SGK1[T422D] by the PDK1 mutant above 95%; a stimulation of the PDK1 mutant towards T308tide by PIF of 2 fold.
